Two molecules from PMC3137622, “Mechanisms of Allergen-Antibody Interaction of Cockroach Allergen Bla g 2 with Monoclonal Antibodies That Inhibit IgE Antibody Binding” (PLoS ONE, 2011) can be followed below.

The assay concerns the target T1, natural Bla g 2 (Blattella germanica, UniProt P54958).
T1 construct: Glycosylated natural allergen; also called nBla g 2; natural allergen
Briefly: ELISA; two-site dose-response: mAb 7C11 or 4C3 as capture antibody, allergen titrated, detection with biotinylated mAb 4C3 (21 nM) or 7C11 (4 nM), respectively, or polyclonal antibody (53 nM). The note with it: both partners purified.

T1 sequence (P54958 whole entry, looked up): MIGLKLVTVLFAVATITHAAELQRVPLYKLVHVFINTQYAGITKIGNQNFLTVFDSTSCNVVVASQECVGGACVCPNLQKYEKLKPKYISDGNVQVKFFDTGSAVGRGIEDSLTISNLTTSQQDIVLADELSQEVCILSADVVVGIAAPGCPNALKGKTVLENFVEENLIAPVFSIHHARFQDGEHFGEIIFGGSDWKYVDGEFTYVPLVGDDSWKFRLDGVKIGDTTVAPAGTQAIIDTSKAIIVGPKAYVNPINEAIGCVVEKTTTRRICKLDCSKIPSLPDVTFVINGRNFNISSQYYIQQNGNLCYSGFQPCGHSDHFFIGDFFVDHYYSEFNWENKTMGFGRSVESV

B1: monoclonal antibody 7C11 (anti-Bla g 2) (antibody, V domains shown)
VH: EIQLQQSGAELVKPGASVKLSCTASGFNIKDTYIHWVKQRPEQGLEWIGRIDPANGNTRYGPKFLGKATITADTSSNTAYLHLNSLTSEDTAVYFCARWVRQMDYWGQGTSVTVSS
VL: DIVMTQSHKFMSTSVGDRVSITCKASQIVSTAVAWYQQKPGQSPKLLIYSASYRYTGVPDRFTGSGSGTDFTFTISSVQAEDLAVYYCQQHYNSPQTFGGGTKLEIK
notes: the Fab' of mAb 7C11 stands in PDB 2nr6 (complex with Bla g 2), heavy chain; the Fab' of mAb 7C11 stands in PDB 2nr6 (complex with Bla g 2), light chain; Whole mAb in the assays; the PDB entry holds only the Fab' fragment; also called mAb 7C11; biotinylated mAb 7C11
For B1, the binding result is “binds”.

B2: monoclonal antibody 4C3 (anti-Bla g 2) (antibody, V domains shown)
VH: EVQLVESGGGLVQPGGSLKLSCAASGFTFSSFAMSWGRQTPDKRLELVATINSNGASTYYPDTVKGRFTISRDNAKNTLFLQMSSLKSEDTAMYYCTRDPAGRAWFAYWGQGTLVTVSA
VL: QIVLTQSPSSMYASLGERVTITCKASQDINNYLSWFQQKPGKSPKTLIYRADRLVDGVPSRVSGSGSGQDYSLTISSLEYEDLGIYYCLQYDELPYTFGGGTKLEIK
notes: the Fab of mAb 4C3 stands in PDB 3liz (complex with Bla g 2), heavy chain; the Fab of mAb 4C3 stands in PDB 3liz (complex with Bla g 2), light chain; Whole mAb in the assays; the PDB entry holds only the Fab fragment; also called mAb 4C3; biotinylated mAb 4C3
B2: the binding result was “binds”.
